Laboratory results: the supplement of paper PMC11246515
± gives the standard deviation of the averaged measurements.

Assay: total protein half-life in vivo (active degradation + dilution); higher = more stable protein
[1] = E. coli NCM3722 delta-clpP delta-lon delta-hslV, growth: N-lim chemostat, doubling time 6 h
[2] = E. coli NCM3722 delta-clpP, growth: N-lim chemostat, doubling time 6 h
[3] = E. coli NCM3722 delta-hslV, growth: N-lim chemostat, doubling time 6 h
[4] = E. coli NCM3722 delta-smpB, growth: N-lim chemostat, doubling time 6 h
[5] = wild type E. coli NCM3722, growth: C-lim chemostat, doubling time 3 h
[6] = wild type E. coli NCM3722, growth: C-lim chemostat, doubling time 6 h
[7] = wild type E. coli NCM3722, growth: C-lim chemostat, doubling time 12 h
[8] = wild type E. coli NCM3722, growth: N-lim chemostat, doubling time 6 h
[9] = wild type E. coli NCM3722, growth: N-lim chemostat, doubling time 12 h
[10] = wild type E. coli NCM3722, growth: P-lim chemostat, doubling time 6 h
[11] = wild type E. coli NCM3722, growth: P-lim chemostat, doubling time 12 h

P0AGE9
total protein half-life in vivo [1]: 4.58 ± 0.064 h | total protein half-life in vivo [2]: 4.71 ± 0.71 h | total protein half-life in vivo [3]: 4.68 ± 0.31 h | total protein half-life in vivo (E. coli NCM3722 delta-lon, growth: N-lim chemostat, doubling time 6 h): 5.1 ± 0.21 h | total protein half-life in vivo [4]: 4.28 ± 0.29 h | total protein half-life in vivo [5]: 3.06 ± 0.069 h | total protein half-life in vivo [6]: 5.43 ± 0.12 h | total protein half-life in vivo [7]: 9.89 ± 1.2 h | total protein half-life in vivo [8]: 4.64 ± 0.056 h | total protein half-life in vivo [9]: 7.237 ± 0.026 h | total protein half-life in vivo [10]: 5.85 ± 0.2 h | total protein half-life in vivo [11]: 11.9 ± 0.51 h

MINALGLLEVDGMVAAIDAADAMLKAANVRLLSHEVLDPGRLTLVVEGDLAACRAALDAGCAAAMRTGRVISRKEIGRPDDDTQWLVTGFNRQPKQPVREPDAPVIVAESADELLALLTSVRQGMTAGEVAAHFGWPLEKARNALEQLFSAGTLRKRSSRYRLKPH
total protein half-life in vivo [5]: 1.02 ± 0.097 h

MIWKRHLTLDELNATSDNTMVAHLGIVYTRLGDDVLEAEMPVDTRTHQPFGLLHGGASAALAETLGSMAGFMMTRDGQCVVGTELNATHHRPVSEGKVRGVCQPLHLGRQNQSWEIVVFDEQGRRCCTCRLGTAVLG [P0A8Y8]
total protein half-life in vivo [1]: 6.69 h

MHTSELLKHIYDINLSYLLLAQRLIVQDKASAMFRLGINEEMATTLAALTLPQMVKLAETNQLVCHFRFDSHQTITQLTQDSRVDDLQQIHTGIMLSTRLLNDVNQPEEALRKKRA [P0A8S9]
total protein half-life in vivo [1]: 6.51 ± 0.47 h | total protein half-life in vivo [5]: 0.799 h

MIVRILLLFIALFTFGVQAQAIKESYAFAVLGEPRYAFNFNHFDYVNPAAPKGGQITLSALGTFDNFNRYALRGNPGARTEQLYDTLFTTSDDEPGSYYPLIAESARYADDYSWVEVAINPRARFHDGSPITARDVEFTFQKFMTEGVPQFRLVYKGTTVKAIAPLTVRIELAKPGKEDMLSLFSLPVFPEKYWKDHKLSDPLATPPLASGPYRVTSWKMGQNIVYSRVKDYWAANLPVNRGRWNFDTIRYDYYLDDNVAFEAFKAGAFDLRMENDAKNWATRYTGKNFDKKYIIKDEQKNESAQDTRWLAFNIQRPVFSDRRVREAITLAFDFEWMNKALFYNAWSRTNSYFQNTEYAARNYPDAAELVLLAPMKKDLPSEVFTQIYQPPVSKGDGYDRDNLLKADKLLNEAGWVLKGQQRVNATTGQPLSFELLLPASSNSQWVLPFQHSLQRLGINMDIRKVDNSQITNRMRSRDYDMMPRVWRAMPWPSSDLQISWSSEYINSTYNAPGVQSPVIDSLINQIIAAQGNKEKLLPLGRALDRVLTWNYYMLPMWYMAEDRLAWWDKFSQPAVRPIYSLGIDTWWYDVNKAAKLPSASKQGE
total protein half-life in vivo [1]: 6.04 ± 0.17 h | total protein half-life in vivo [2]: 6.38 ± 1.6 h | total protein half-life in vivo [3]: 5.79 ± 0.79 h | total protein half-life in vivo [4]: 5.92 ± 0.24 h | total protein half-life in vivo [5]: 3.0824 ± 5.7e-05 h | total protein half-life in vivo [6]: 6.076 ± 0.038 h | total protein half-life in vivo [7]: 13.3 ± 2.8 h | total protein half-life in vivo [8]: 6.19 ± 0.39 h | total protein half-life in vivo [9]: 12.8 ± 0.89 h | total protein half-life in vivo [10]: 6.46 ± 0.14 h | total protein half-life in vivo [11]: 12 ± 1.5 h

MMNSTNKLSVIIPLYNAGDDFRTCMESLITQTWTALEIIIINDGSTDNSVEIAKYYAENYPHVRLLHQANAGASVARNRGIEVATGKYVAFVDADDEVYPTMYETLMTMALEDDLDVAQCNADWCFRETGETWQSIPTDRLRSTGVLTGPDWLRMGLSSRRWTHVVWMGVYRRDVIVKNNIKFIAGLHHQDIVWTTEFMFNALRARYTEQSLYKYYLHNTSVSRLHRQGNKNLNYQRHYIKITRLLEKLNRNYADKIMIYPEFHQQITYEALRVCHAVRKEPDILTRQRMIAEIFTSGMYKRLITNVRSVKVGYQALLWSFRLWQWRDKTRSHHRITRSAFNLR
total protein half-life in vivo [1]: 5.55 ± 0.4 h | total protein half-life in vivo [2]: 0.858 h | total protein half-life in vivo [4]: 0.809 ± 0.17 h | total protein half-life in vivo [10]: 0.32 ± 0.2 h | total protein half-life in vivo [11]: 0.789 ± 0.74 h

MPQSALFTGIIPPVSTIFTADGQLDKPGTAALIDDLIKAGVDGLFFLGSGGEFSQLGAEERKAIARFAIDHVDRRVPVLIGTGGTNARETIELSQHAQQAGADGIVVINPYYWKVSEANLIRYFEQVADSVTLPVMLYNFPALTGQDLTPALVKTLADSRSNIIGIKDTIDSVAHLRSMIHTVKGAHPHFTVLCGYDDHLFNTLLLGGDGAISASGNFAPQVSVNLLKAWRDGDVAKAAGYHQTLLQIPQMYQLDTPFVNVIKEAIVLCGRPVSTHVLPPASPLDEPRKAQLKTLLQQLKLC
total protein half-life in vivo [3]: 3.07 h

MSILYEERLDGALPDVDRTSVLMALREHVPGLEILHTDEEIIPYECDGLSAYRTRPLLVVLPKQMEQVTAILAVCHRLRVPVVTRGAGTGLSGGALPLEKGVLLVMARFKEILDINPVGRRARVQPGVRNLAISQAVAPHNLYYAPDPSSQIACSIGGNVAENAGGVHCLKYGLTVHNLLKIEVQTLDGEALTLGSDALDSPGFDLLALFTGSEGMLGVTTEVTVKLLPKPPVARVLLASFDSVEKAGLAVGDIIANGIIPGGLEMMDNLSIRAAEDFIHAGYPVDAEAILLCELDGVESDVQEDCERVNDILLKAGATDVRLAQDEAERVRFWAGRKNAFPAVGRISPDYYCMDGTIPRRALPGVLEGIARLSQQYDLRVANVFHAGDGNMHPLILFDANEPGEFARAEELGGKILELCVEVGGSISGEHGIGREKINQMCAQFNSDEITTFHAVKAAFDPDGLLNPGKNIPTLHRCAEFGAMHVHHGHLPFPELERF [P0AEP9]
total protein half-life in vivo [5]: 1.69 ± 0.022 h | total protein half-life in vivo [6]: 3.62 ± 0.18 h | total protein half-life in vivo [7]: 5.4 ± 0.53 h | total protein half-life in vivo [10]: 2.38 ± 0.24 h | total protein half-life in vivo [11]: 5.7 ± 3.1 h

MLQISHLYADYGGKPALEDINLTLESGELLVVLGPSGCGKTTLLNLIAGFVPYQHGSIQLAGKRIEGPGAERGVVFQNEGLLPWRNVQDNVAFGLQLAGIEKMQRLEIAHQMLKKVGLEGAEKRYIWQLSGGQRQRVGIARALAANPQLLLLDEPFGALDAFTRDQMQTLLLKLWQETGKQVLLITHDIEEAVFMATELVLLSSGPGRVLERLPLNFARRFVAGESSRSIKSDPQFIAMREYVLSRVFEQREAFS
total protein half-life in vivo [1]: 4.76 h

MSAQVSLELHHRISQFLFHEASLLDDWKFRDWLAQLDEEIRYTMRTTVNAQTRDRRKGVQPPTTWIFNDTKDQLERRIARLETGMAWAEEPPSRTRHLISNCQISETDIPNVFAVRVNYLLYRAQKERDETFYVGTRFDKVRRLEDDNWRLLERDIVLDQAVITSHNLSVLF
total protein half-life in vivo [1]: > 8 h | total protein half-life in vivo [5]: 2.05 h | total protein half-life in vivo [6]: 5.02 h | total protein half-life in vivo [7]: 8.73 h | total protein half-life in vivo [10]: 5.1 ± 0.36 h | total protein half-life in vivo [11]: 9.68 ± 0.98 h

MNYHQYYPVDIVNGPGTRCTLFVSGCVHECPGCYNKSTWRVNSGQPFTKAMEDQIINDLNDTRIKRQGISLSGGDPLHPQNVPDILKLVQRIRAECPGKDIWVWTGYKLDELNAAQMQVVDLINVLVDGKFVQDLKDPSLIWRGSSNQVVHHLR [P0A9N8]
total protein half-life in vivo [2]: 1.08 h | total protein half-life in vivo [7]: 2.03 h

MNQQDIEQVVKAVLLKMQSSDTPSAAVHEMGVFASLDDAVAAAKVAQQGLKSVAMRQLAIAAIREAGEKHARDLAELAVSETGMGRVEDKFAKNVAQARGTPGVECLSPQVLTGDNGLTLIENAPWGVVASVTPSTNPAATVINNAISLIAAGNSVIFAPHPAAKKVSQRAITLLNQAIVAAGGPENLLVTVANPDIETAQRLFKFPGIGLLVVTGGEAVVEAARKHTNKRLIAAGAGNPPVVVDETADLARAAQSIVKGASFDNNIICADEKVLIVVDSVADELMRLMEGQHAVKLTAEQAQQLQPVLLKNIDERGKGTVSRDWVGRDAGKIAAAIGLKVPQETRLLFVETTAEHPFAVTELMMPVLPVVRVANVADAIALAVKLEGGCHHTAAMHSRNIENMNQMANAIDTSIFVKNGPCIAGLGLGGEGWTTMTITTPTGEGVTSARTFVRLRRCVLVDAFRIV
total protein half-life in vivo [1]: 5.64 ± 1.3 h
